Measured values taken from patent publication US20220306744A1.

B1: 1.92b-4GS-1.39a-4GS-MSA binder (protein, part only; not given: mouse serum albumin binder, part only)
chain, part: EVQLVESGGGLVKPGGSLRLSCAASGFTFSDESMTWMRQAPGKGLEWVSYISSGGGVKFYADSVKGRFTISRDNAKNSLYLQMNSLRAEDTAVYYCAREAPLRLGESPHDAFDISGQGTMVTVSSGGGGSGGGGSGGGGSGGGGSEVQLVESGGGLVQPGRSLRLSCAASGFTFDDYALHWVRQAPGKDLEWVSGISWNGGSYGYADSVKGRFTISRDNAKNSLYLQMNSLRAEDTALYYCVREKGPGLTGSTADYYGLDAWGQGTMVTVSSGGGGSGGGGSGGGGSGGGGS
B2: 1.57b-4GS-MSA binder-4GS-1.1a (protein, part only; not given: Middle albumin binder and linkers, not shown: another chain or arm of the molecule; large carriers; small tags and cut ends)
VH 1: QVQLVESGGGLVKPGGSLRLSCAASGFTFSDNSMTWMRQAPGKGLEWVSYISSGGGVIFYADSVKGRFTISRDNAKNSLYLQMNSLRADDTAVYYCAREAPLRLGESPHDAFDISGQGTMVTVSS
VH 2: EVQLLESGGGSVQPGRSLRLSCAASGFTFDDHAMHWVRQAPGKGLEWVSGISWNSGSMGYADSVKDRFTISRDNAKSSLYLQMNSLRAEDTALYYCVREKGPGLTGSTADYYGLDVWGQGTMVTVSS
modifications: In the real molecule both VH are parts of one polypeptide: 1.57b, 4GS (SEQ ID NO 1105), MSA binder VH, 4GS (SEQ ID NO 1105), 1.1a. They are given here as two separate chains because the middle domain has no letters.
B3: 1.57b-4GS-1.1a-4GS-MSA binder (protein, part only; not given: Albumin binder, second linker, His tag, not shown: another chain or arm of the molecule; large carriers; small tags and cut ends)
chain: QVQLVESGGGLVKPGGSLRLSCAASGFTFSDNSMTWMRQAPGKGLEWVSYISSGGGVIFYADSVKGRFTISRDNAKNSLYLQMNSLRADDTAVYYCAREAPLRLGESPHDAFDISGQGTMVTVSSGGGGSGGGGSGGGGSGGGGSEVQLLESGGGSVQPGRSLRLSCAASGFTFDDHAMHWVRQAPGKGLEWVSGISWNSGSMGYADSVKDRFTISRDNAKSSLYLQMNSLRAEDTALYYCVREKGPGLTGSTADYYGLDVWGQGTMVTVSS

Legend:
[1] = molecular target: human PD-1 expressed on cells (CHO TREX human PD1 cell line, full-length human PD-1 sequence) (human) (UniProt Q15116); experiment: cell-based or functional assay
[2] = molecular target: recombinant human PD-1 Fc chimera (human) (UniProt Q15116); experiment: SPR Biacore T200, single cycle kinetics, human Fc tagged PD-1 captured on Protein G, 1:1 model
[3] = molecular target: cynomolgus PD-1 recombinant protein (Acro Biosystems cat no. PD-1-C5254) (cynomolgus); experiment: HTRF binding assay, 2 nM recombinant PD1, anti His-D2 and anti human-Fc cryptate
[4] = molecular target: recombinant human PD-1 Fc chimera (human) (UniProt Q15116); experiment: as above
[5] = molecular target: human PD-1 expressed on cells (CHO TREX human PD1 cell line, full-length human PD-1 sequence) (human) (UniProt Q15116); experiment: FMAT: inhibition of human Fc tagged human PD-L1 (400 pM) binding to CHO human PD-1 cells
[6] = molecular target: Strep tagged recombinant human PD-1 (human) (UniProt Q15116); experiment: SPR Biacore T200, single cycle kinetics, Strep tagged human PD-1 amine coupled, 1:1 model
[7] = molecular target: recombinant human PD-1 Fc chimera (human) (UniProt Q15116); experiment: SPR Biacore T200, single cycle kinetics, human Fc tagged PD-1 captured on Protein G, 1:1 model; second line of values in the continuation row of the name

Chain of recombinant human PD-1 Fc chimera (human) (Q15116 25-167 limits assumed, stated change not applied): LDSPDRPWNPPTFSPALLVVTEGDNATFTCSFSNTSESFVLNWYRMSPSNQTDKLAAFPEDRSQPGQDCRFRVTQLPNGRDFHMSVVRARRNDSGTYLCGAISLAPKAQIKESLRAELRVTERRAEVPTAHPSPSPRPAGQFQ
Chain of Strep tagged recombinant human PD-1 (human) (Q15116 25-167 limits assumed): as the sequence (Q15116 25-167 limits assumed, stated change not applied) above
Chain of human PD-1 expressed on cells (CHO TREX human PD1 cell line, full-length human PD-1 sequence) (human) (Q15116 21-288): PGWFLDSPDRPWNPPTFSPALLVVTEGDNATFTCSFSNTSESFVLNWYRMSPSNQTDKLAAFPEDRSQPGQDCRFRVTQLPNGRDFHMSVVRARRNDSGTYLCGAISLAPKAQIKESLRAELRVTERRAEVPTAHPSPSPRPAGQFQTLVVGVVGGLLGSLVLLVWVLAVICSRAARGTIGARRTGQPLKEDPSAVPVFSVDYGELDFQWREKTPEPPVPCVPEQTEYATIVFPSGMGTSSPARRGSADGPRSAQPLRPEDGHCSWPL

| Binder | EC50 (M), NFAT-Luciferase reporter gene assay [1] [M] | Kd [2] [pM] | koff [2] [s⁻¹] | kon [2] [M⁻¹ s⁻¹] | EC50 [3] [nM] | EC50 [4] [nM] | IC50 [5] [nM] | Kd [6] [nM] | koff [6] [s⁻¹] | kon [6] [M⁻¹ s⁻¹] | Kd [7] [pM] | koff [7] [s⁻¹] | kon [7] [M⁻¹ s⁻¹] |
| --- | --- | --- | --- | --- | --- | --- | --- | --- | --- | --- | --- | --- | --- |
| B1 | 4.7e-09 | – | – | – | – | – | – | – | – | – | – | – | – |
| B2 | 3.2e-09 | 8.06 | 4.23e-06 | 524000 | – | – | – | – | – | – | – | – | – |
| B3 | 2.5e-09 | 0.0517 | 2.67e-08 | 516000 | 1.6 | 1 | 4.4 | 0.134 | 4.68e-05 | 349000 | 0.0166 | 1.32e-08 | 793000 |
